Source: patent publication US20170052184A1 (published 2017)

T1: HCV Core1-169 (HCV-1, UniProt P26664 1-169)
T1 construct: also called recombinant HCV core antigen
T1 sequence: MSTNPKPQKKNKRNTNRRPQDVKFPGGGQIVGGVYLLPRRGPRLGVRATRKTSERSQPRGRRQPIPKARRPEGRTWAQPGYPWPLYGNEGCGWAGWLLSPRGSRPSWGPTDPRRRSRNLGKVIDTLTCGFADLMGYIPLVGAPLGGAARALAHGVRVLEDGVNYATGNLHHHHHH

T2: HCV Core1-169 (hepatitis C virus (HCV-1), UniProt P26664 1-169)
T2 sequence: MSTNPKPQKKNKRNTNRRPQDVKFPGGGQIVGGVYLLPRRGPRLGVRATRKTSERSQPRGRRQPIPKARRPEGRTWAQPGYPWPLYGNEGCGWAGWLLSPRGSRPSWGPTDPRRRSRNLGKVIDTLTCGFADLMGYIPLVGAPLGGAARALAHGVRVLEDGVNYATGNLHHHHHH


Assays:
HCV Core1-169 [1] = target: T1, HCV Core1-169; test: EIA, core1-169 captured by mAb 14-153-229; note: test concentration or dose not given here
HCV Core1-169 [2] = target: T1, HCV Core1-169; test: EIA, core1-169 coated on plate; note: test concentration or dose not given here
HCV Core1-169 [3] = target: T2, HCV Core1-169; test: SPR sandwich, capture mAb C11-9
[4] = target: T3, HCV Core 134-171-TT Peptide (hepatitis C virus (HCV-1 numbering) …); test: SPR, captured mAb, peptide analyte
T3 construct: also called ALRZ-9 peptide

HCV Core1-169 [5] = target: T2, HCV Core1-169; test: SPR sandwich, capture mAb C11-14
HCV Core1-169 [6] = target: T2, HCV Core1-169; test: SPR sandwich, capture mAb C11-3
HCV Core1-169 [7] = target: T2, HCV Core1-169; test: SPR sandwich, capture mAb C11-7

| Binder | OD (A492) (HCV Core1-169 [1]) [OD] | OD (A492) (HCV Core1-169 [2]) [OD] | expected percent binding (HCV Core1-169 [3]) [%] | Kd [4] [nM] | koff [4] [s⁻¹] | kon [4] [M⁻¹ s⁻¹] | expected percent binding (HCV Core1-169 [5]) [%] | expected percent binding (HCV Core1-169 [6]) [%] | expected percent binding (HCV Core1-169 [7]) [%] |
| --- | --- | --- | --- | --- | --- | --- | --- | --- | --- |
| HCV 208A-442 (antibody, V domains shown) VH: DVQLQESGPGLVNPSQSLSLTCSVTGYSITSGYYWIWIRQFPGNKLEWMGYIKYDGGNNYSPSLKNRISIARDTSKNQFFLKLNSVTIEDTATYYCTRGSDSFDYWGQGTTLTVSS VL: DIVLTQSPASLAVSLGQRAIISCKASQSVSFAGTNLMHWYQQKPGQQPKLLIYRASNLETGVPTRFSGSGSRTDFTLNIHPVEEDDAATYYCQQSREYYTFGGGTKLEIKR | 0.36 | 1.61 | – | – | – | – | – | – | – |
| HCV 208A-557 (antibody, V domains shown) VH: QGQMQQSGAELVKPGASVKLSCKTSGFTFSSSYISWLKQKPGQSLEWIAWIYAGTGNTNYNQKFTDKAQLTVDTSSSTAYMQLSSLTTEDSAIYYCAISGTGFTYWGQGTLVTVSA VL: DIALTQSPASLAVSLGQRATISCRASQSVSTSRYSYMHWYQQKPGQPPELLIKYASNLESGVPARFSGSGSGTDFTLNIHPVGEEDTATYYCQHSWDFPFTFGSGTKLEIKR | 2.39 | 1.4 | – | – | – | – | – | – | – |
| HCV 208B-560 (antibody, V domains shown) VH: EVQLQQSGPELEKPGASVKISCKTSGYTFTEYAMHWVKQSHGMSLEWIGGINPSNGNAIYNQIFKDKATLTVDRSSSTAYMGLRSLTFGDSGVYFCVRRQLDFFDYWGQGASLTVSS VL: DIVVTQSPASLAVSLGQRATISCRASQSVSTSRYSYLHWYQQKPGQPPKLLIKYASNLESGVPARFSGSGSGTDFTLNIHPVGEEDTATYYCQHSWEFPFTFGSGTKLEIKR | 1.3 | 1.07 | – | – | – | – | – | – | – |
| HCV 208A-222 (antibody, V domains shown) VH: EVQLQQSGPELEKPGASVRISCKTSGYTFTEYAMHWVKQSHGKSLEWIGGINPNNGNAIYNQIFKDKATLTVDRSSSTAYMGLRSLTFGDSGVYFCVRRQLDYFDYWGQGASLTVSS VL: DIVVTQSPASLAVSLGQRATISCRASQSVSTSRYSYLHWYQQKPGQPPKLLIKYASNLESGVPARFSGSGSGTDFTLNIHPVGEEDTATYYCQHSWEFPFTFGSGTKLEIKR | 2.07 | 1.06 | – | – | – | – | – | – | – |
| HCV 208A-605 (antibody, V domains shown) VH: EVQLQQSGPELEKPGASVKISCKTSGYTFTEYAIHWVKQSHGMSLEWIGGINPSNGNAIYNQIFKDKATLTVDRSSSTAYMGLRSLTFGDSGVYFCVRRQLDFFDYWGQGASLTVSS VL: DIVVTQSPASLAVSLGQRATISCRASQSVSTSRYSYLHWYQQKPGQPPKLLIKYASNLESGVPARFSGSGSGTDFTLNIHPVGEEDTATYYCQHSWEFPFTFGSGTKLEIKR | 2.21 | 0.55 | – | – | – | – | – | – | – |
| HCV 208A-638 (antibody, V domains shown) VH: QGQLQQPGAEFVKPGASLKLSCRASGYTFTSYWIHWVKQRPGQGLEWIGEVDPSDSYINQNEKFRGKATLTVDKSSSTAYMQLGSLTSEDSAVYYCARHYYGVLDSWGQGTALTVSS VL: QIVLTQSPTIMSASLGERVTMTCTASSSVSSSYLHWFQQKPGSSPKLWIYSTSNLASGVPPRFSGSGSGTSYSLSISSVEAEDVATYYCLQFHRSPWTFGGGAKLEIKR | 2.24 | 1.07 | – | – | – | – | – | – | – |
| HCV 208A-134 (antibody, V domains shown) VH: QGQMQQSGAELAKPGASVKLSCKTSGFTFSSSYISWLKQKPGQSLEWIAWIYAGTGNTNYNQKFTDKAQLTVDTSSSTAYMQLSSLTTEDSAIYYCAISGTGFTYWGQGTLVTVSA VL: EVLMTQSPLSLPVSLGDQASISCRSSQSLEHTNGNTYLEWFLQRPGQPPKLLIYKVSSRFSGVPDRFSGSGSGTDFTLKISRVEAEDLGVYYCFQGSHVPFTFGSGTKLAIKR | 0.13 | 0.1 | – | – | – | – | – | – | – |
| HCV 208A-692 (antibody, V domains shown) VH: QGQMQQSGAELAKPGASVKLSCKTSGFTFSSSYISWLKQKPGQSLEWIAWIFAGTGNTNYNQKFTDKAQLTVDTSSSTAYMQLSSLTTEDSAIYYCAISGTGFTYWGQGTLVTVSA VL: EVLMTQSPLSLPVSLGDQASISCRSSQSLEHSNGNTYLEWFLQRPGQPPKLLIYKVSSRFSGVPDRFSGSGSGTDFTLKISRVEAEDLGVYYCFQGSHVPFTFGSGTKLAIKR | 0.57 | 0.07 | – | – | – | – | – | – | – |
| HCV 208A-920 (antibody, V domains shown) VH: not shown VL: DIVLTQSPASLAVSLGQRATISCRASQSVSTSRYSYMHWYQQKPGQPPKLLIKYASNLESGVPARFSGSGSGTDFTLNIHPVAEEDTAAYYCQHSWEFPFTFGSGTKLEIKR | 1.82 | 1.14 | – | – | – | – | – | – | – |
| HCV 208A-110 (antibody, V domains shown) VH: not shown VL: DIVLTQSPASLAVSLGQRATISCRASQSVSTSRYSYMHWYQQKPGQPPKLLIKYASNLESGVPARFSGSGSGTDFTLNIHPVAEEDTAAYYCQHSWEFPFTFGSGTKLEIKR | 1.87 | 1.6 | – | – | – | – | – | – | – |
| HCV 208A-126 (antibody, V domains shown) VH: QLQQSGPVLVKPGASVMISCKTSGYTFTENAMHWVKQSHGKSLEWIGGVNPNNGDTIFNQKFKGKATLTVDKSSNTAFTELRSLPSEESTVYYCVRRGLDFFDYWGQGTSVTVSS VL: DIVLTQSPASLAVSLGQRATISCRASQSVSTSRYSYMHWYQQKPGQPPKLLIKYASNLESGVPARFSGSGSGTDFTLNIHPVAEEDTAAYYCQHSWEFPFTFGSGTKLEIKR | 1.2 | 0.69 | – | – | – | – | – | – | – |
| HCV 208A-133 (antibody, V domains shown) VH: QLQQSGPVLVGPGASVMISCKTSGYTFTENAMHWVEQSHGKSLEWIGGVNPNNGDTIFNQKFKGKATLTVDKSSSTAFMEFRSLTSEESTVYYCVRRELDFFDYWGQGTSVTVSS VL: DIVLTQSPASLAVSLGQRATISCRASQSVSTSRYSYMHWYQQKPGQPPKLLIKYASNLESGVPARFSGSGSGTDFTLNIHPVAEEDTATYYCQHSWEFPFTFGSGTKLEIKR | 1.46 | 1.73 | – | – | – | – | – | – | – |
| HCV 208B-589 (antibody, V domains shown) VH: QVQLQQSGAGLAKPGASVKMSCKASGYTFTANKMHWAKQRPGQGLEWIGYIDPSSGYTEYNHKIQDKATLTADTSSSTAYMQLSSLTFEDSAVYYCTNFAYWGQGTLVTVSA VL: DIVMTQTPLTLSVTIGQPASISCKSSQSLLFTNGKTYLNWFLQRPGQSPKRLIYLLSKLDSGVPDRFSGSGSGTDFTLKISRVEAEDLGVYYCLQSTYFPLTFGAGTKLELKR | – | – | 6.7 | 0.63 | 0.00061 | 960000 | 9.9 | 9.4 | 11.7 |
| HCV 208B-189 (antibody, V domains shown) VH: QVHLQQSGAELAKPGASVQMSCKASGYTFTANKMHWARQRPRQGLEWIGYIDPASGYTEYNQKIKDRATLTADKSSSTAYMQLSSLTSEDSAVYYCTNFAYWGQGTLVTVST VL: not shown | – | – | ≤ 1 | 0.17 | 0.00015 | 880000 | 2.7 | 2.3 | 2.9 |
| HCV 208B-395 (antibody, V domains shown) VH: QVQLQQSGAGLAKPGASVKMSCKASGYTFTANKMHWTKQRPGQGLEWIGYIDPSSGYTQYNHKIQDKATLTADTSSSTAYMQLSSLTFEDSAVYYCTNFAYWGQGTLVTVSA VL: DIVLTQSPATLSVTPGDRVSLSCRASQRIYNYLHWYQQKSHESPRLLIKYASQSISGIPSRFSGSGSGTDFILTINSVETEDFGMYFCQQSNSWPLTFGAGTKLELRR | – | – | 5.2 | 0.36 | 0.00047 | 1.3e+06 | 7.8 | 7.6 | 9.4 |
| HCV 208B-547 (antibody, V domains shown) VH: QVQLQQSGAELAKPGASVKMSCKASGYTFTSNKMHWAKQRPGQGLEWIGYIDPSSGYTEYNQKIKDKATLTADKSSSTAYMQLSSLTSEDSAVYYCTNFAYWGQGTLVTVSA VL: EVVLTQSPAITAASLGQKVTITCRASSSVSYMHWYRQKSGTSPQPWIYEISTLASGVPTRFRASGSGTSYSLTISSMEAEDAAIYYCQQWNYPLTFGAGTKLELKR | – | – | 4.9 | 3.2 | 0.0049 | 1.6e+06 | 8.2 | 7.2 | 8.3 |
| HCV 208B-612 (antibody, V domains shown) VH: EVQLQQSGPELVKPGASVKMSCKASGYRFTSYVMHWVRQKPGQGLEWIGYIDPHNDDTKYSEKFRGKATLTSDKSSTTAYMELSSLTSEDSAVYYCVRYSYDRDYSPMDYWGQGTSVTVSS VL: QIVLTQSPTLMSASPGEKVTMTCSASSTVTYIYWYQQKPGSSPRLWMYDTFNLVSGVPARFSGSRSGTSYFLTISSMEGEDAATYYCQQYSDSPYTFGGGTKLEIKR | – | – | ≤ 1 | 0.35 | 6.5e-05 | 180000 | 3.1 | 3.8 | 4.4 |
| HCV 208B-672 (antibody, V domains shown) VH: EVKLVESGGSLVQPGGSLKLSCAASGFNFNTYAMSWVRQTPEKRLEWVAYISNGGGNTYYVDTVKGRFTISRDNAKNTLYLRMSSLKSEDTAMYYCARHGLYWGYSMDYWGQGTSVTVSS VL: DIQMTQSPSSLSASLGERVSLTCRASQDIGGSINWLQQEPDGTIKRLIYATSSLDSGVPKRFSGSRSGSDYSLTISSLESEDFVDYYCLQYASSPPTFGGGTKLEIKR | – | – | ≤ 1 | 0.16 | 0.00034 | 2.2e+06 | 2.7 | 2.6 | 2.8 |
